Assay results published in patent US20050037444A1 (INTERCELL, published 2005).

T1: soluble HLA class II molecule DRA1*0101/DRB1*0401 (human, UniProt P01903 26-216; P01911 30-227, limits assumed)
T1 construct: Recombinant soluble MHC class II heterodimer expressed in SC-2 cells (as in Aichinger et al., 1997); also called soluble DRA1*0101/DRB1*0401 molecules
T1 MHC II alpha: not shown
T1 MHC II beta: not shown


Molecular target: T1, soluble HLA class II molecule …
Test: competition assay vs biotinylated UD4, L243 capture ELISA
MTLPLMALLALSSIVAFVLPRKRKN (synthetic peptide) [p623-647 of Seq ID 142 (LPXTGVI)]: no binding (tested: 200 µM). ALVFEKSVVIANVGDSRA (synthetic peptide) [p107-124 of Seq ID 114 (POV2)]: no binding (tested: 200 µM). AGGIFYNQTNQQLLVLCDGMGGHK (synthetic peptide) [p23-47 of Seq ID 114 (POV2)]: no binding (tested: 200 µM). KDYAYIRFSVSNGTKAVKIVSSTHFNN (synthetic peptide) [p218-244 of Seq ID 142 (LPXTGVI)]: binds. QSWWGLYALLGMLALFIPKFRKESK (synthetic peptide) [p871-896 of Seq ID 56 (LPXTGV)]: no binding (tested: 200 µM). KLLVLTMSTLFATQIMNSNHAKASV (synthetic peptide) [p4-29 of Seq ID 94 (EMPBP)]: binds. GESLNIIASRYGVSVDQLMAANNLRG (synthetic peptide) [p96-121 of Seq ID 89 (ORF1hom2)]: no binding (tested: 200 µM). FPYIPDKAVYNAIVKVVVANIGYEGQ (synthetic peptide) [p620-646 of Seq ID 56 (LPXTGV)]: binds. NNLRGYLIMPNQTLQIPNG (synthetic peptide) [p117-136 of Seq ID 89 (ORF1hom2)]: no binding (tested: 200 µM). MHVPSFQNNTTATHQN (synthetic peptide) [p254-270 of Seq ID 94 (EMPBP)]: binds. IKINHFCVVPQINSFKVIPPYGHNS (synthetic peptide) [p226-251 of Seq ID 94 (EMPBP)]: no binding (tested: 200 µM). KEFKSFYSIRKSSLGVASVAISTL (synthetic peptide) [p6-30 of Seq ID 142 (LPXTGVI)]: binds. TIFRYVEGKSLYE (synthetic peptide) [p416-428 of Seq ID 142 (LPXTGVI)]: no binding (tested: 200 µM). IKLVSYDTVKDYAYIRFSVSNGTKA (synthetic peptide) [p209-233 of Seq ID 142 (LPXTGVI)]: binds. FMVEGQRVRTISTYAINNTRCTIF (synthetic peptide) [p395-418 of Seq ID 142 (LPXTGVI)]: no binding (tested: 200 µM). YKVVKGVKKYFSFSQSNGYKIG (synthetic peptide) [p284-305 of Seq ID 94 (EMPBP)]: binds. YDYKYFYSYKVVKGVKKYFSFSQS (synthetic peptide) [p275-299 of Seq ID 94 (EMPBP)]: binds. MNYGYGPGVVTSRTISASQA (synthetic peptide) [p240-260 of Seq ID 74 (ORF1hom1)]: binds. PKLRSFYSIRKSTLGVASVIVST (synthetic peptide) [p6-28 of Seq ID 56 (LPXTGV)]: binds. PSLNIKNVNYQYAVPSYSPT (synthetic peptide) [p306-326 of Seq ID 94 (EMPBP)]: binds. VIVSTLFLISQHQAQA (synthetic peptide) [p24-40 of Seq ID 56 (LPXTGV)]: no binding (tested: 200 µM).
